Laboratory results from the Immune Epitope Database (IEDB).

How the values were obtained:
Assay in all cases: IEDB peptide-MHC binding, purified MHC/competitive/fluorescence; filed as Kd, often an IC50 or EC50 that approximates it; ≥ and ≤ were set here for values at or beyond the usual limits of such assays
Conditions in all cases: source organism: Salmonella enterica subsp. enterica serovar Typhi
HLA-B*27:05 = target: HLA-B*27:05
HLA-A*30:01 = target: HLA-A*30:01
HLA-B*57:01 = target: HLA-B*57:01
HLA-B*40:01 = target: HLA-B*40:01
HLA-B*08:01 = target: HLA-B*08:01
HLA-B*38:01 = target: HLA-B*38:01
HLA-B*58:01 = target: HLA-B*58:01
HLA-B*15:17 = target: HLA-B*15:17
HLA-A*69:01 = target: HLA-A*69:01
HLA-A*02:03 = target: HLA-A*02:03
HLA-A*03:01 = target: HLA-A*03:01
HLA-B*48:01 = target: HLA-B*48:01
HLA-B*15:01 = target: HLA-B*15:01
HLA-A*01:01 = target: HLA-A*01:01
HLA-A*26:01 = target: HLA-A*26:01
HLA-A*11:01 = target: HLA-A*11:01
HLA-B*15:09 = target: HLA-B*15:09
HLA-A*31:01 = target: HLA-A*31:01
HLA-A*02:01 = target: HLA-A*02:01
HLA-A*02:06 = target: HLA-A*02:06

MSAIVSCRY
Kd (HLA-B*27:05): ≥ 20000 nM | Kd (HLA-A*30:01): 1400 nM | Kd (HLA-B*57:01): 237 nM | Kd (HLA-B*40:01): ≥ 20000 nM | Kd (HLA-B*08:01): ≥ 20000 nM | Kd (HLA-B*38:01): ≥ 20000 nM | Kd (HLA-B*58:01): 27.5 nM | Kd (HLA-B*15:17): 2.4 nM | Kd (HLA-A*69:01): ≥ 20000 nM | Kd (HLA-A*02:03): ≥ 20000 nM | Kd (HLA-A*03:01): 882 nM | Kd (HLA-B*48:01): ≥ 20000 nM | Kd (HLA-B*15:01): 51.2 nM | Kd (HLA-A*01:01): 4 nM | Kd (HLA-A*26:01): 235 nM | Kd (HLA-A*11:01): ≥ 20000 nM | Kd (HLA-B*15:09): ≥ 20000 nM | Kd (HLA-A*31:01): ≥ 20000 nM | Kd (HLA-A*02:01): ≥ 20000 nM | Kd (HLA-A*02:06): ≥ 20000 nM
